Data as given in paper doi:10.1101/2020.01.31.925156.
Several values for one entry are separate records, joined by “and”; a condition that tells them apart may be missing. Equal entries are not always repeated. Where two headings read alike, the source gives them in different places.

Experiments:
Assay in all cases: mass photometry
[1] = target: deglycosylated trastuzumab
[2] = target: trastuzumab (Herceptin®), immunoglobulin G (IgG) monoclonal antibody
[3] = target: deglycosylated trastuzumab; remark: listed apart in the source
[4] = target: deglycosylated trastuzumab; remark: listed apart in the source
[5] = target: trastuzumab (Herceptin®), immunoglobulin G (IgG) monoclonal antibody; remark: listed apart in the source
[6] = target: recombinant human FcRN (His and Avi tagged), neonatal Fc receptor (human) (UniProt P55899)
[7] = target: recombinant human FcRN (His and Avi tagged), neonatal Fc receptor (human) (UniProt P55899); remark: listed apart in the source
[8] = target: trastuzumab (Herceptin®), immunoglobulin G (IgG) monoclonal antibody; remark: listed apart in the source
[9] = target: trastuzumab (Herceptin®), immunoglobulin G (IgG) monoclonal antibody; remark: listed apart in the source
[10] = target: recombinant human FcRN (His and Avi tagged), neonatal Fc receptor (human) (UniProt P55899); remark: listed apart in the source
[11] = target: recombinant human FcRN (His and Avi tagged), neonatal Fc receptor (human) (UniProt P55899); remark: listed apart in the source

Kd [1] [nM] | percent bound antibody [1] [%] | Kd [2] [nM] | percent complex formation [2] [%] | Kd [3] | Kd [4] [nM] | koff [4] [s⁻¹] | kon [4] [M⁻¹ s⁻¹] | Kd [5] [nM] | koff [5] [s⁻¹] | kon [5] [M⁻¹ s⁻¹] | Kd [6] [nM] | stoichiometry N [6] | Kd [7] | Kd of IgG plus two FcRns (second FcRn) [8] | Kd of IgG-FcRn monomer (first FcRn) [8] | stoichiometry N [8] | Kd [9] [nM] | Kd [10] [nM] | Kd [11] [nM] | Substance
1 | 50 | 0.05 | 90 | 0.6 nM and 0.7 nM | 1.1 | 0.0068 | 6e+06 | 0.026 | 0.00052 | 1.9e+07 | – | – | – | – | – | – | – | – | – | FcγRIa (CD64 human recombinant, His Tag) (from UniProt P12314) (receptor)
– | – | > 200 | – | – | – | – | – | – | – | – | 31 | 2 | 44 nM and 171 nM | 6.6 nM and 3.9 nM | 59 nM and 225 nM | 2 | > 200 | > 200 | > 200 | recombinant human FcRN (His and Avi tagged), neonatal Fc receptor (from UniProt P55899)
